The data set has as its target eIF4A1 (UniProt P60842). Briefly: fluorescence anisotropy. As to conditions: 20 mM Hepes/KOH pH 7.5, 100 (mM) KCl, 1 mM MgCl2, 1 mM AMP-PNP, 1 mM TCEP, 0.1% DMSO, +/-50 uM silvestrol (10 uM in Fig 4a legend), 60 min, 25 C; numeric Kd of …. (In general: Polarisation of emitted light reports the rotation of a fluorescent probe.)

eIF4A1, sequence (P60842 whole entry): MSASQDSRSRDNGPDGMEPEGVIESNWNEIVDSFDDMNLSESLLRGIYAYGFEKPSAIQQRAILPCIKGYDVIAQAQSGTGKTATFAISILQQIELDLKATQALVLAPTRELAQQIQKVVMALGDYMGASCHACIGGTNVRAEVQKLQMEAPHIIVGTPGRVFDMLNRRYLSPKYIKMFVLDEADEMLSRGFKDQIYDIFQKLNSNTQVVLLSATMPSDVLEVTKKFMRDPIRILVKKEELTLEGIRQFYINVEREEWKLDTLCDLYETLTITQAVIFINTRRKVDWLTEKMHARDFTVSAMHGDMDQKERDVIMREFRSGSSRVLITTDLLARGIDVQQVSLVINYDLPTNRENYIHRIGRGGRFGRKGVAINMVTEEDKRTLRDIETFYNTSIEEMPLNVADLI

In general, Kd refers to the equilibrium constant for the complex coming apart. With AGAGAGAGAGAGAGAGAGAG [(AG)10 ssRNA], the Kd was found to be 0.0033 mM.
